B1: 9A2-VR24.76 (antibody, V domains shown)
VH: EVQLLESGGGLVQPGGSLRLSCAASGFTFPWYRVHWVRQAPGKGLEWVSSIQTHGVWTYYADSVKGRFTISRDNSKNTLYLQMNSLRAEDTAVYYCARFYDSFFDIWGQGTMVTVSS
VL: DIQMTQSPSSVSASVGDRVTITCRASQGISSWLAWYQQKPGKAPKLLIYAASSLQSGVPSRFSGSGSGTDFTLTISSLQPEDFATYYCQQANSFPITFGQGTRLEIKR
B2: 9A2-VR24.78 (antibody, V domains shown)
VH: EVQLLESGGGLVQPGGSLRLSCAASGFTFPWYRVHWVRQAPGKGLEWVSSIHTHRNYTYYADSVKGRFTISRDNSKNTLYLQMNSLRAEDTAVYYCARFYDSFFDIWGQGTMVTVSS
VL: DIQMTQSPSSVSASVGDRVTITCRASQGISSWLAWYQQKPGKAPKLLIYAASSLQSGVPSRFSGSGSGTDFTLTISSLQPEDFATYYCQQANSFPITFGQGTRLEIKR
B3: 9A2-VR24.81 (antibody, V domains shown)
VH: EVQLLESGGGLVQPGGSLRLSCAASGFTFPWYRVHWVRQAPGKGLEWVSSIHTHRNYTYYADSVKGRFTISRDNSKNTLYLQMNSLRAEDTAVYYCARFYDSFFDIWGQGTMVTVSS
VL: DIQMTQSPSSVSASVGDRVTITCRASQGISSWLAWYQQKPGKAPKLLIYAASSLQSGVPSRFSGSGSGTDFTLTISSLQPEDFATYYCQQANSFPITFGQGTRLEIKR
B4: 9A2-VR24.82 (antibody, V domains shown)
VH: EVQLLESGGGLVQPGGSLRLSCAASGFTFPWYRVHWVRQAPGKGLEWVSSIKHGGRYTYYADSVKGRFTISRDNSKNTLYLQMNSLRAEDTAVYYCARFYDSFFDIWGQGTMVTVSS
VL: DIQMTQSPSSVSASVGDRVTITCRASQGISSWLAWYQQKPGKAPKLLIYAASSLQSGVPSRFSGSGSGTDFTLTISSLQPEDFATYYCQQANSFPITFGQGTRLEIKR
B5: 9A2-VR24.84 (antibody, V domains shown)
VH: EVQLLESGGGLVQPGGSLRLSCAASGFTFPWYRVHWVRQAPGKGLEWVSSIHTHRPWTYYADSVKGRFTISRDNSKNTLYLQMNSLRAEDTAVYYCARFYDSFFDIWGQGTMVTVSS
VL: DIQMTQSPSSVSASVGDRVTITCRASQGISSWLAWYQQKPGKAPKLLIYAASSLQSGVPSRFSGSGSGTDFTLTISSLQPEDFATYYCQQANSFPITFGQGTRLEIKR
B6: 9A2-VR24.87 (antibody, V domains shown)
VH: EVQLLESGGGLVQPGGSLRLSCAASGFTFPWYRVHWVRQAPGKGLEWVSSIHTHSDWTYYADSVKGRFTISRDNSKNTLYLQMNSLRAEDTAVYYCARFYDSFFDIWGQGTMVTVSS
VL: DIQMTQSPSSVSASVGDRVTITCRASQGISSWLAWYQQKPGKAPKLLIYAASSLQSGVPSRFSGSGSGTDFTLTISSLQPEDFATYYCQQANSFPITFGQGTRLEIKR
B7: 9A2-VR24.91 (antibody, V domains shown)
VH: EVQLLESGGGLVQPGGSLRLSCAASGFTFPWYRVHWVRQAPGKGLEWVSSIHTHRQVTYYADSVKGRFTISRDNSKNTLYLQMNSLRAEDTAVYYCARFYDSFFDIWGQGTMVTVSS
VL: DIQMTQSPSSVSASVGDRVTITCRASQGISSWLAWYQQKPGKAPKLLIYAASSLQSGVPSRFSGSGSGTDFTLTISSLQPEDFATYYCQQANSFPITFGQGTRLEIKR
B8: 9A2-VR24.93 (antibody, V domains shown)
VH: EVQLLESGGGLVQPGGSLRLSCAASGFTFPWYRVHWVRQAPGKGLEWVSSIRNENGWTYYADSVKGRFTISRDNSKNTLYLQMNSLRAEDTAVYYCARFYDSFFDIWGQGTMVTVSS
VL: DIQMTQSPSSVSASVGDRVTITCRASQGISSWLAWYQQKPGKAPKLLIYAASSLQSGVPSRFSGSGSGTDFTLTISSLQPEDFATYYCQQANSFPITFGQGTRLEIKR
B9: 9A2-VR24.27 (antibody, V domains shown)
VH: EVQLLESGGGLVQPGGSLRLSCAASGFTFPWYRVHWVRQAPGKGLEWVSSIRSSGGFPYYHQKVKGRFTISRDNSKNTLYLQMNSLRAEDTAVYYCARFYDSFFDIWGQGTMVTVSS
VL: DIQMTQSPSSVSASVGDRVTITCRASQGISSWLAWYQQKPGKAPKLLIYAASSLQSGVPSRFSGSGSGTDFTLTISSLQPEDFATYYCQQANSFPITFGQGTRLEIKR
B10: 9A2-VR24.30 (antibody, V domains shown)
VH: EVQLLESGGGLVQPGGSLRLSCAASGFTFPWYRVHWVRQAPGKGLEWVSSIRSSGGFPYYNRRVKGRFTISRDNSKNTLYLQMNSLRAEDTAVYYCARFYDSFFDIWGQGTMVTVSS
VL: DIQMTQSPSSVSASVGDRVTITCRASQGISSWLAWYQQKPGKAPKLLIYAASSLQSGVPSRFSGSGSGTDFTLTISSLQPEDFATYYCQQANSFPITFGQGTRLEIKR
B11: 9A2-VR24.33 (antibody, V domains shown)
VH: EVQLLESGGGLVQPGGSLRLSCAASGFTFPWYRVHWVRQAPGKGLEWVSSIRSSGGFPYYNHKVKGRFTISRDNSKNTLYLQMNSLRAEDTAVYYCARFYDSFFDIWGQGTMVTVSS
VL: DIQMTQSPSSVSASVGDRVTITCRASQGISSWLAWYQQKPGKAPKLLIYAASSLQSGVPSRFSGSGSGTDFTLTISSLQPEDFATYYCQQANSFPITFGQGTRLEIKR
B12: 9A2-VR24.44 (antibody, V domains shown)
VH: EVQLLESGGGLVQPGGSLRLSCAASGFTFPWYRVHWVRQAPGKGLEWVSSIRSSGGFPYYHPSVKGRFTISRDNSKNTLYLQMNSLRAEDTAVYYCARFYDSFFDIWGQGTMVTVSS
VL: DIQMTQSPSSVSASVGDRVTITCRASQGISSWLAWYQQKPGKAPKLLIYAASSLQSGVPSRFSGSGSGTDFTLTISSLQPEDFATYYCQQANSFPITFGQGTRLEIKR
B13: 9A2-VR24.97 (antibody, V domains shown)
VH: EVQLLESGGGLVQPGGSLRLSCAASGFTFPWYRVHWVRQAPGKGLEWVSSIRSSGGFPYYSLSVKGRFTISRDNSKNTLYLQMNSLRAEDTAVYYCARFYDSFFDIWGQGTMVTVSS
VL: DIQMTQSPSSVSASVGDRVTITCRASQGISSWLAWYQQKPGKAPKLLIYAASSLQSGVPSRFSGSGSGTDFTLTISSLQPEDFATYYCQQANSFPITFGQGTRLEIKR
B14: 9A2-VR24.98 (antibody, V domains shown)
VH: EVQLLESGGGLVQPGGSLRLSCAASGFTFPWYRVHWVRQAPGKGLEWVSSIRSSGGFPHYNSVVKGRFTISRDNSKNTLYLQMNSLRAEDTAVYYCARFYDSFFDIWGQGTMVTVSS
VL: DIQMTQSPSSVSASVGDRVTITCRASQGISSWLAWYQQKPGKAPKLLIYAASSLQSGVPSRFSGSGSGTDFTLTISSLQPEDFATYYCQQANSFPITFGQGTRLEIKR
B15: 9A2-VR24.102 (antibody, V domains shown)
VH: EVQLLESGGGLVQPGGSLRLSCAASGFTFPWYRVHWVRQAPGKGLEWVSSIRSSGGFPFYNSSVKGRFTISRDNSKNTLYLQMNSLRAEDTAVYYCARFYDSFFDIWGQGTMVTVSS
VL: DIQMTQSPSSVSASVGDRVTITCRASQGISSWLAWYQQKPGKAPKLLIYAASSLQSGVPSRFSGSGSGTDFTLTISSLQPEDFATYYCQQANSFPITFGQGTRLEIKR
B16: 9A2-VR24.107 (antibody, V domains shown)
VH: EVQLLESGGGLVQPGGSLRLSCAASGFTFPWYRVHWVRQAPGKGLEWVSSIRSSGGFPYYNPFVKGRFTISRDNSKNTLYLQMNSLRAEDTAVYYCARFYDSFFDIWGQGTMVTVSS
VL: DIQMTQSPSSVSASVGDRVTITCRASQGISSWLAWYQQKPGKAPKLLIYAASSLQSGVPSRFSGSGSGTDFTLTISSLQPEDFATYYCQQANSFPITFGQGTRLEIKR
B17: 9A2-VR24.110 (antibody, V domains shown)
VH: EVQLLESGGGLVQPGGSLRLSCAASGFTFPWYRVHWVRQAPGKGLEWVSSIRSSGGFPYYNNHVKGRFTISRDNSKNTLYLQMNSLRAEDTAVYYCARFYDSFFDIWGQGTMVTVSS
VL: DIQMTQSPSSVSASVGDRVTITCRASQGISSWLAWYQQKPGKAPKLLIYAASSLQSGVPSRFSGSGSGTDFTLTISSLQPEDFATYYCQQANSFPITFGQGTRLEIKR
B18: 9A2-VR24.111 (antibody, V domains shown)
VH: EVQLLESGGGLVQPGGSLRLSCAASGFTFPWYRVHWVRQAPGKGLEWVSSIRSSGGFPMYNPHVKGRFTISRDNSKNTLYLQMNSLRAEDTAVYYCARFYDSFFDIWGQGTMVTVSS
VL: DIQMTQSPSSVSASVGDRVTITCRASQGISSWLAWYQQKPGKAPKLLIYAASSLQSGVPSRFSGSGSGTDFTLTISSLQPEDFATYYCQQANSFPITFGQGTRLEIKR
B19: 9A2-VR24.55 (antibody, V domains shown)
VH: EVQLLESGGGLVQPGGSLRLSCAASGFTFPWYRVHWVRQAPGKGLEWVSSIRSSGGFTYYNPSVKNRFTISRDNSKNTLYLQMNSLRAEDTAVYYCARFYDSFFDIWGQGTMVTVSS
VL: DIQMTQSPSSVSASVGDRVTITCRASQGISSWLAWYQQKPGKAPKLLIYAASSLQSGVPSRFSGSGSGTDFTLTISSLQPEDFATYYCQQANSFPITFGQGTRLEIKR

Biological target: T1, human CD131 (human, UniProt P32927 17-897)
T1 sequence: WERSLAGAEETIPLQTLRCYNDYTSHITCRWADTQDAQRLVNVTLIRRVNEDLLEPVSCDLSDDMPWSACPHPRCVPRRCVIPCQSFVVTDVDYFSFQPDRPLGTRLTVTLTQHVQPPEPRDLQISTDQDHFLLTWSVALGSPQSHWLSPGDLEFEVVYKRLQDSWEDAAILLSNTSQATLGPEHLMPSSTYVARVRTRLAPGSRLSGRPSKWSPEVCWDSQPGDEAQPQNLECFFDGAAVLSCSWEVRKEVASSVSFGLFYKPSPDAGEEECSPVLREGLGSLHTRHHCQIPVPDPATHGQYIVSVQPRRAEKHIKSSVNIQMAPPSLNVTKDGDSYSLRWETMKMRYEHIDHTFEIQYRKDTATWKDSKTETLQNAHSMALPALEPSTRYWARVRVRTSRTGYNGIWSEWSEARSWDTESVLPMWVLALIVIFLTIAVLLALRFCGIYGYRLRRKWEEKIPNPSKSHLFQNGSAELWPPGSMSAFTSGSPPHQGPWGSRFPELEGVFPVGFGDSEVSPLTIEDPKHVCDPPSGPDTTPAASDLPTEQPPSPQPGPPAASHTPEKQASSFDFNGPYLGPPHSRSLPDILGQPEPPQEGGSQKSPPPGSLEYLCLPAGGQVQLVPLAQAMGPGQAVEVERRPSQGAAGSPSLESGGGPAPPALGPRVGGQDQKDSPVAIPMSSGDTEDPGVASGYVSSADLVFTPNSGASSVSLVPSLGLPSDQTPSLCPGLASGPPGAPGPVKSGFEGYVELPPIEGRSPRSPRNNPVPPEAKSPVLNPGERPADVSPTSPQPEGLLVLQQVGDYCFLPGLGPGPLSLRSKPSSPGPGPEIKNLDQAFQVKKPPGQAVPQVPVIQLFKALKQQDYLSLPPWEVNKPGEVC
Test: cell-based or functional assay

| Binder | IC50 GM-CSF, TF-1 proliferation [nM] |
| --- | --- |
| B1 | 12.4 |
| B2 | 0.65 |
| B3 | 0.48 |
| B4 | 3.99 |
| B5 | 0.21 |
| B6 | 2.37 |
| B7 | 0.5 |
| B8 | 0.92 |
| B9 | 0.25 |
| B10 | 0.25 |
| B11 | 0.34 |
| B12 | 0.4 |
| B13 | 0.16 |
| B14 | 0.25 |
| B15 | 0.32 |
| B16 | 0.3 |
| B17 | 0.24 |
| B18 | 0.42 |
| B19 | 0.6 |

From patent publication US20190062438A1 (CSL, published 2019)
